In the DeepSol protein solubility set:

assay: soluble on expression in E. coli; label from the status in PepcDB or PDB records

| Sequence | soluble on expression in E. coli |
| --- | --- |
| MNDAVEVELEPVTYHYFNAGAAGKDLNTNETYIGKMLEEKTGVNFKVEHLVGDINQRTGVMIASGDYPDVIVPDAAIDALLDAGAFIPLNDLLEEHGPNLLEAYGDYLHMFTHDDGNIYYIPFGATVNEFQPNPNIDQGAFWIQRGILKEYGFPEINTLDEYLDIITRYAKENPEIDGMRTIPFTGLTYDWRFFAFTNVPNHLAGYPNDGGVMVDMDTHEASVYADSEYAKRWLKALNELNAEGLLDQEMFVMNYDEYLEKLSSGRVLGFFDYGWQFGTASNALRDAGNPDREYMALPVVFDEGIKDQYIDPPAFTGNRGVGITVNAENPERIIQFWDELIKEDNQRLVMWGIEGEHYNVDENGRFYQTEEQIEIVNNQNFRDEFGMTTFEWSWPRINGTFSDGNAVEARRQPEVAFASYNDDDKEYLEAYGISTFAELFSEPDERPWYPAWSANIEQGSPQQIFEERADEILRRHYARIVLADPADFDKEWDDFVQAYRSLDVDAYENFFTEVVQARVRGEWLEHHHHHH | soluble |
| MDYEILFSDETMNYADAGTYCQSRGMALVSSAMRDSTMVKAILAFTEVKGHDYWVGADNLQDGAYNFLWNDGVSLPTDSDLWSPNEPSNPQSWQLCVQIWSKYNLLDDVGCGGARRVICEKELDD | soluble |
| MDSTKVTLTVRGSTAFGEVIAVVGSCETLGSWCQQKAVTLQPAEEDGTLWRTTIHVPRGAETKYRYFKAFILESKNAGGPCQVIVNRWETHQLPRSLSPSEPELVVDDGHFGVHDGAECVDSGWLTCQTEIRLRLHYSVKPPVSITKKKFKTSRIRLKPMLEGVEEEEDED | soluble |
| MVLPKKEFVLSHTFTDVSKMEKDISVFSPGEEHFNVSWNMSISCEGDHLGVFLHCHKSRGKETMWTIDTEHQFTLKTSSGKAYREDDNFNFQFSNAHSYGNGTTEFISWNKLIKDYLIDDVITVEAAVKIIKTTGISKKALKGFEKSNEEFSDVVLAVGDKEFFVLKQFLAYHSSYFKSLLLGKFAESDQKEVTLQDIDPTDFQNLLEVLYGEPAIDDETIDGILHLAHMYDMSVPLRKCEEFLINESEKSMKDQLKIAKQYQLEKLKKACLLKINTVDEIKAAVAGKLSDMDPTVVAALF | not soluble |
| MVMVLDSLGRALSNALKKIARAGSVDEALVKEVVRDIQRALLQADVNVRLVLKLTKEIQRRALEEKPPAGISKKEHIIKIVYEELTKFLGTEAKPIEIKEKPTVLLTVGVQGSGKTTTVAKLARYFQKRGYKVGVVCSDTWRPGAYHQLKQLLDPYHIEVFGDPNEKDAVKLAKEGVEYFKTRDVDLIIVDTAGRHKEEKDLIEEMRMISEEIRPHEVILVIDGTIGQQAYNQALAFKEATPIGSIIVTKLDSSAKGGGALSAVAATGAPIKFIGVGEKIDDLEPFDPARFVSRLLGLGDIQGLLEKFKELEKEVEFTEEDIDRFLRGKFTLKDMYAQLEAMRKMGPLKQILRMIPGLGYSLPDELISVGEERLRKFKVIMDSMTEEELMNPEIINYSRIKRIARGSGTSIKDVKELLTQYNQMKKFFKSMNKRQLSRLARRFGM | soluble |
| MGSDKIHHHHHHMDQDDASPISSGVEGLDYVLRGGYAKYRSHLVEGRPGSGKTTLGLQFLIKGAAAGEKCLYITLSESRRELQSVAVRHGFSLDGIEILELVPPELSLDPSQLQTLVHSSDLELGETVQAALAEIERMKPDRVVFDSLSEIRLLSQGSLRYRRQVLALKSFFLLNNATVLLLDDLTAEHDDLNLHSISHGVIRMEQLSPIYGGERRRLRIIKMRGVQIRGGFHDFVIRPGGVMVFPRLVASEHEMAEHGTPATGNGSVDTLVGGGLDRGTSTLLMGPSGVGKSTIACSYCHSALKRGEHVLVLLFDETKRIFLARASGLGMDLGPFADNGNLLLEQIDPAELSPGELSSRIQSAVERSSARIVVIDSLTGYLNAMSEEQHLVLQMHEILTYLNQKGVVTILLLANHGLIGQMSAPVDMTYLCDSVMLLRFFESGGRLRRAISVVKKRVGPHEDTIREFKISATGLAVGEPLEEFRGILTGVPTYEGKQGNLLQDKAS | not soluble |
| NGLLYKRWVKQRAEDVEKWSGGRLGYVHIQSMGDGSFRTVYSDILGKYNNCDGIVIDTRFNGGGRLHEDIEILFSGQKYFTQVVRGREACDMPSRRWNKPSIMLQCEANYSNAHGTPWVYKHQNIGKLVGMPVPGTMTSVSWETLQDPSLVFGIPIIGYRLPDGSYLENTQLEPDIKVANSPETIVKGEDTQLKMAVDELLKEIDSRKK | not soluble |
| MSRPPSRPRMMCARVLLLLSVTGLVLACETGPSSGDYEQAVMQDRVQRDMQMREKESVLPPGRREAFRGLNFYEVDPAYRYTVPLRRFETPDTVMIPESTGDLRPQQRIGEVTVPLPEGPEELVVFRGEGDTPRGRLWIPFADSTNRHATYKGGRYVDLTSTDSDSVVVDFNRAYNPTCAYNPDFACPLPPPENRIAVPVAAGEKRPTFGGLEHHHHHH | not soluble |
| MLFHDIHDRAVKALPQILDRLIADGYQFAGWNGRDFSVARAPSATAAATVTTGYAKSWAIVIGIDDYARWPKLEYAANDAQAIANTLTGPLGFPSSQVIVLKNAEATRNNILAAFHDRLGDGRAQTNDRVFVFFAGHGATRRLASGRDLGYIIPVDSDPEHLANDAIAMSDLQNIAESLQAKHVLFVMDACYSGLGLTRGGPSSSAYLRENARRIARQMLTAGGADQQVADSGPNGHSVFTWVVLQALAGKGDLNGDGLITGTELAAYVAPAVSAVSAQTPAFGSLPGSQGGEFVFQVPSGEEFLTADTAQLSAAAIALNGRVDAVRPAAVSLEHHHHHH | soluble |
| MGSDKIHHHHHHMALIRINFMAASLHRTVPLMVCLPTDKLVPDEQGVPRPIQGPFATLYLLHGILGSEVDWISGTRIQRWADERNLAVVMPAGENSFYTDHPWSGETYSQFIGQELIDFTRRTFPLSHQRDQTFIGGLSMGGYGALYNGLKFHDIFGAIVSLSAGLNVRPGMEKLPAKPQWFAETAAYQHGVFGPDLAAAGHSELNPQVLVTKLLAAHVALPAIFMAIGDQDGLKPANDEFDHFLTAKKVSHEYVVGSGAHEWDFWDRYLLKALNWLPLTNQGAGVNSGHIKAN | not soluble |
| SLQGKPTISVPEFKNDTNMSWWWWSGNTSRELADALSNELTSTGNFQVVERQNLGSVLSEQELAELGLTRPETSAQRGQLTGAQYIVLGRVTAYEEGVSSESGGNNFGLNLGLFSIGNSERQAKQEAYVAIDLRVVDSSTGEVVYARTVEGRATDTAASSANNVNILGIVNTGQDNQSTSRAPVGKALRAGLVEITDYLSCVMVEQDNCIQEYQDKDRQRRQKTKDTLILE | soluble |
| MSLEPASAPKVERLEVSAYTVPTETPESDGTIAWSETTLVMVRMAACGAEGLGYTFADVATAALIDAHLKDAVVGHNPLNIPELWSTMVRKVRNLGRPGVCSMAISAVDNALWDLKARLLHLSVADLLGRAHDSIGAYGSGGFTSYSDEELRQQLTGWIGQGLTQVKMKIGSDPASDLARVRSARGAIGPDAELFVDANGAYDRKQALAKAAAFADLGVSWFEEPVSSDDLAGLRLIRERAPAGMRIAAGEYGYDSFYFRRMLEAEAVDVLQGDATRCAGITGFLAAGNLSTSFSTPFSAHTAPSLHAHAACALTSAINVEYFFDHYRIEQMFFDGALVPSNGVLRPDSTRPGFGLECKLSDMEKYRVYGNVTTEGHHHHHH | not soluble |
| MGSDKIHHHHHHMLTSSWIKQLPLTAITQVTPVGGGDVNQAYRIDTATKPYFLLVQPGYPADFYAGEIAGLKAFDEAQILAPRVIANGQIEGDGFLLLSFLTSGNGSQRDLGRLVAHLHQHHEPNGRFGFDYPYAGTSVSFTNTWTDSWADLFIHQRLDKLAAHLLKKELWQADDEATFQQVRTIISKTLAHHHSDASLLHGDLWGGNYMFTADGQPALIDPAAVYGDRELDIGVTTVFGGFTQDFYTGYQEVYPLDAGYHFRLDFYRLYYLMVHLDKFGMGYAGSVAAVMNQILDHGLTE | not soluble |
| MNTMLFSPYTIRGLTLKNRIVMSPMCMYSCDTKDGAVRTWHKIHYPARAVGQVGLIIVEATGVTPQGRISERDLGIWSDDHIAGLRELVGLVKEHGAAIGIQLAHAGRKSQVPGEIIAPSAVPFDDSSPTPKEMTKADIEETVQAFQNGARRAKEAGFDVIEIHAAHGYLINEFLSPLSNRRQDEYGGSPENRYRFLGEVIDAVREVWDGPLFVRISASDYHPDGLTAKDYVPYAKRMKEQGVDLVDVSSGAIVPARMNVYPGYQVPFAELIRREADIPTGAVGLITSGWQAEEILQNGRADLVFLGRELLRNPYWPYAAARELGAKISAPVQYERGWRF | soluble |
